Reference: paper doi:10.1101/2023.12.13.571451 (bioRxiv, 2023)

Molecular target: T1, Tsa1^WT-HA (peroxiredoxin Tsa1, single C-terminal HA tag at the endogenous locus) (S. cerevisiae, UniProt P34760 1-196)
T1 sequence (looked up): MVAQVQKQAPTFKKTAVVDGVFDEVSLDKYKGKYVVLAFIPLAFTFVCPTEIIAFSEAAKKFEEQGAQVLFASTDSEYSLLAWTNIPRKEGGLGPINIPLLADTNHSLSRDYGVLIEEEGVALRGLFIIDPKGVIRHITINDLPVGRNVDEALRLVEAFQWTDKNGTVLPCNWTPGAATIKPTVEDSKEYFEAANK
Assay: in vitro thioredoxin reaction, non-reducing SDS-PAGE with immunoblot

- binding result: binds
B1: recombinant Trx1-HIS (enzyme, S. cerevisiae, UniProt P22217 1-103, looked up)
chain: MVTQFKTASEFDSAIAQDKLVVVDFYATWCGPCKMIAPMIEKFSEQYPQADFYKLDVDELGDVAQKNEVSAMPTLLLFKNGKEVAKVVGANPAAIKQAIAANA
